In PMC4006906 (2014):
Where two headings read alike, the source gives them in different places.

Assays:
Assay in all cases: SPR
[1] = biological target: T1, H5VN04 trimeric HA (recombinant hemagglutinin) (influenza A virus (H5VN04), UniProt Q6DQ33)
[2] = biological target: T1, H5VN04 trimeric HA (recombinant …); remark: listed apart in the source
[3] = biological target: T1, H5VN04 trimeric HA (recombinant …); remark: listed apart in the source
[4] = biological target: T1, H5VN04 trimeric HA (recombinant …); remark: listed apart in the source

B1: F10 CDR-H2 variant ISPIFGTA (germline CDR-H2 with Ser52 restored) scFv (scFv, V domains shown)
VH: QVQLVQSGAEVKKPGSSVKVSCTSSEVTFSSFAISWVRQAPGQGLEWLGGISPIFGTANYAQKFQGRVTITADQSTRTAYMDLRSLRSEDTAVYYCARSPSYICSGGTCVFDHWGQGTLVTVSS
VL: QPGLTQPPSVSKGLRQTATLTCTGNSNNVGNQGAAWLQQHQGHPPKLLSYRNNDRPSGISERFSASRSGNTASLTITGLQPEDEADYYCSTWDSSLSAVVFGGGTKLTVL
B1 was tested, and the koff [1] was 0.00025 s⁻¹ and the Kd [2] was 1.2 nM.

B2: F10 scFv (wild type) (scFv, V domains shown)
VH: QVQLVQSGAEVKKPGSSVKVSCTSSEVTFSSFAISWVRQAPGQGLEWLGGISPMFGTPNYAQKFQGRVTITADQSTRTAYMDLRSLRSEDTAVYYCARSPSYICSGGTCVFDHWGQGTLVTVSS
VL: QPGLTQPPSVSKGLRQTATLTCTGNSNNVGNQGAAWLQQHQGHPPKLLSYRNNDRPSGISERFSASRSGNTASLTITGLQPEDEADYYCSTWDSSLSAVVFGGGTKLTVL
In the case of B2, the Kd [3] is reported as 0.1 nM and the koff [4] is reported as 3.5e-05 s⁻¹.

B3: F10 CDR-H2 variant IIPMFGTA (germline CDR-H2 with Met53 restored) scFv (scFv, V domains shown)
VH: QVQLVQSGAEVKKPGSSVKVSCTSSEVTFSSFAISWVRQAPGQGLEWLGGIIPMFGTANYAQKFQGRVTITADQSTRTAYMDLRSLRSEDTAVYYCARSPSYICSGGTCVFDHWGQGTLVTVSS
VL: QPGLTQPPSVSKGLRQTATLTCTGNSNNVGNQGAAWLQQHQGHPPKLLSYRNNDRPSGISERFSASRSGNTASLTITGLQPEDEADYYCSTWDSSLSAVVFGGGTKLTVL
B3 was tested, and the Kd [2] was 270 nM.

B4: F10 Y98A scFv (scFv, V domains shown)
VH: QVQLVQSGAEVKKPGSSVKVSCTSSEVTFSSFAISWVRQAPGQGLEWLGGISPMFGTPNYAQKFQGRVTITADQSTRTAYMDLRSLRSEDTAVYYCARSPSAICSGGTCVFDHWGQGTLVTVSS
VL: QPGLTQPPSVSKGLRQTATLTCTGNSNNVGNQGAAWLQQHQGHPPKLLSYRNNDRPSGISERFSASRSGNTASLTITGLQPEDEADYYCSTWDSSLSAVVFGGGTKLTVL
B4 showed a Kd [3] of 350 nM and a koff [4] of 0.097 s⁻¹.

B5: CR6261 Y98A scFv (scFv, V domains shown)
VH: EVQLVESGAEVKKPGSSVKVSCKASGGPFRSYAISWVRQAPGQGPEWMGGIIPIFGTTKYAPKFQGRVTITADDFAGTVYMELSSLRSEDTAMYYCAKHMGAQVRETMDVWGKGTTVTVSS
VL: QSVLTQPPSVSAAPGQKVTISCSGSSSNIGNDYVSWYQQLPGTAPKLLIYDNNKRPSGIPDRFSGSKSGTSATLGITGLQTGDEANYYCATWDRRPTAYVVFGGGTKLTVL
With B5 the Kd [3] was 1600 nM and the koff [4] was 0.027 s⁻¹.

B6: CR6261 F54A scFv (scFv, V domains shown)
VH: EVQLVESGAEVKKPGSSVKVSCKASGGPFRSYAISWVRQAPGQGPEWMGGIIPIAGTTKYAPKFQGRVTITADDFAGTVYMELSSLRSEDTAMYYCAKHMGYQVRETMDVWGKGTTVTVSS
VL: QSVLTQPPSVSAAPGQKVTISCSGSSSNIGNDYVSWYQQLPGTAPKLLIYDNNKRPSGIPDRFSGSKSGTSATLGITGLQTGDEANYYCATWDRRPTAYVVFGGGTKLTVL
Work on B6 yielded a Kd [3] of 290 nM and a koff [4] of 0.0073 s⁻¹.

B7: CR6261 scFv (wild type) (scFv, V domains shown)
VH: EVQLVESGAEVKKPGSSVKVSCKASGGPFRSYAISWVRQAPGQGPEWMGGIIPIFGTTKYAPKFQGRVTITADDFAGTVYMELSSLRSEDTAMYYCAKHMGYQVRETMDVWGKGTTVTVSS
VL: QSVLTQPPSVSAAPGQKVTISCSGSSSNIGNDYVSWYQQLPGTAPKLLIYDNNKRPSGIPDRFSGSKSGTSATLGITGLQTGDEANYYCATWDRRPTAYVVFGGGTKLTVL
Binder B7 has a Kd [3] of 0.34 nM and a koff [4] of 0.00012 s⁻¹.

B8: A66 germline CDR-H2 variant (IIPIFGTA) scFv (scFv, V domains shown)
VH: QVQLVQSGAEVKKPGSSVKVSCKASGGPFSMTAFTWLRQAPGQGLEWMGGIIPIFGTAKYAQKFQGRVTITADESTNTANMELTSLKSEDTAVYYCARTLSSYQPNNDAFAIWGQGTMVTVSS
VL: EIVLTQSPATLSLSPGERATLSCRASQSVSSYLAWYQQKPGQAPRLLIYDASNRATGIPARFSGSGSGTDFTLTISRLEPEDFAVYFCQQYGSSPQFGQGTRLEIK
B8 showed a koff [1] of 0.0049 s⁻¹ and a Kd [2] of 4.2 nM.

B9: A66 scFv (wild type) (scFv, V domains shown)
VH: QVQLVQSGAEVKKPGSSVKVSCKASGGPFSMTAFTWLRQAPGQGLEWMGGISPIFRTPKYAQKFQGRVTITADESTNTANMELTSLKSEDTAVYYCARTLSSYQPNNDAFAIWGQGTMVTVSS
VL: EIVLTQSPATLSLSPGERATLSCRASQSVSSYLAWYQQKPGQAPRLLIYDASNRATGIPARFSGSGSGTDFTLTISRLEPEDFAVYFCQQYGSSPQFGQGTRLEIK
With B9 the koff [1] was 5e-05 s⁻¹ and the Kd [2] was 0.11 nM.

B10: A66 CDR-H2 variant IIPIFRTA (germline CDR-H2 with Arg55 restored) scFv (scFv, V domains shown)
VH: QVQLVQSGAEVKKPGSSVKVSCKASGGPFSMTAFTWLRQAPGQGLEWMGGIIPIFRTAKYAQKFQGRVTITADESTNTANMELTSLKSEDTAVYYCARTLSSYQPNNDAFAIWGQGTMVTVSS
VL: EIVLTQSPATLSLSPGERATLSCRASQSVSSYLAWYQQKPGQAPRLLIYDASNRATGIPARFSGSGSGTDFTLTISRLEPEDFAVYFCQQYGSSPQFGQGTRLEIK
In the case of B10, the koff [1] is reported as 0.0034 s⁻¹ and the Kd [2] is reported as 3.2 nM.

B11: A66 CDR-H2 variant ISPIFGTA (germline CDR-H2 with Ser52 restored) scFv (scFv, V domains shown)
VH: QVQLVQSGAEVKKPGSSVKVSCKASGGPFSMTAFTWLRQAPGQGLEWMGGISPIFGTAKYAQKFQGRVTITADESTNTANMELTSLKSEDTAVYYCARTLSSYQPNNDAFAIWGQGTMVTVSS
VL: EIVLTQSPATLSLSPGERATLSCRASQSVSSYLAWYQQKPGQAPRLLIYDASNRATGIPARFSGSGSGTDFTLTISRLEPEDFAVYFCQQYGSSPQFGQGTRLEIK
Binder B11 has a koff [1] of 0.00023 s⁻¹ and a Kd [2] of 1.1 nM.
